Patent US20250388669A1 (published 2025)

T1: B7H3 (human, UniProt Q5ZPR3 29-466, limits assumed)
T1 construct: Tumor associated antigen; also called huB7H3
T1 sequence (looked up): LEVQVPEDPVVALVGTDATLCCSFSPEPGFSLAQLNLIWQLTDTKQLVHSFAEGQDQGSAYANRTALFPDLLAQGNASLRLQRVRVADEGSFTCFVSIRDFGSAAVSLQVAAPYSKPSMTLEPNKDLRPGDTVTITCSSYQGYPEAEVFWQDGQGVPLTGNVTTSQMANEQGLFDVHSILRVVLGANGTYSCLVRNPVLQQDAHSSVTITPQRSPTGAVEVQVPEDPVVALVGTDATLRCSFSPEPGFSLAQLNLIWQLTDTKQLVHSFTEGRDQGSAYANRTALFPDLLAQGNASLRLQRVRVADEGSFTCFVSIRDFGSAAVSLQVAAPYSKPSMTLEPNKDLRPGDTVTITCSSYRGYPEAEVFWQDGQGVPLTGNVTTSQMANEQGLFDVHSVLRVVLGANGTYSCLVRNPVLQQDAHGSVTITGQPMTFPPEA


Columns and labels:
[1] = biological target: T2, CD137 (human, UniProt Q07011 24-186); assay: CD137 binding by FCM or ELISA
T2 construct: Reporter assays used GS-H2-huCD137 cells expressing human CD137; also called 4-1BB/CD137; huCD137

[2] = biological target: T1, B7H3; assay: FCM or ELISA
[3] = biological target: T3, PD-1 (human, UniProt Q15116 25-167, limits assumed); assay: FCM or ELISA
T3 construct: The reporter assay used Jurkat T cells expressing human PD-1
T3 sequence (Q15116 25-167 limits assumed): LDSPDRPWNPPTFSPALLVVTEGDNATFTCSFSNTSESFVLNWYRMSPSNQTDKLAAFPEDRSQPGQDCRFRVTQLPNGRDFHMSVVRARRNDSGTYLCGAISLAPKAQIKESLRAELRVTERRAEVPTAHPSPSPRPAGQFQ

Binder	binding result [1]	binding result [2]	binding result [3]
Ly1963 (other) chain 1: QVQLVQSGAEVKKPGASVKVSCKASGYTFTSYVMHWVRQKPGQGLEWIGYINPYNEGTESTDKFKGRATMTSDKSTSTVYMELSSLRSEDTAVYYCASIYYGYEGTYFGVWGQGTLVTVSSASTKGPSVFPLAPSSKSTSGGTAALGCLVKDYFPEPVTVSWNSGALTSGVHTFPAVLQSSGLYSLSSVVTVPSSSLGTQTYICNVNHKPSNTKVDKKVEPKSCGGGGSGGGGSGGGGSGGGGSEVQLVESGGGLVQPGGSLRLSCAASGFTFSTYAMNWVRQAPGKGLEWVGRIRSKYNNYATYYADSVKGRFTISRDDSKNSLYLQMNSLKTEDTAVYYCVRHGNFGNSYVSWFAYWGQGTLVTVSSGGGGSDKTHTCPPCPAPEAAGPSVFLFPPKPKDTLMISRTPEVTCVVVDVSHEDPEVKFNWYVDGVEVHNAKTKPREEQYNSTYRVVSVLTVLHQDWLNGKEYKCKVSNKALPAPIEKTISKAKGQPREPQVYTLPPSREEMTKNQVSLWCLVKGFYPSDIAVEWESNGQPENNYKTTPPVLDSDGSFFLYSKLTVDKSRWQQGNVFSCSVMHEALHNHYTQKSLSLSPGGGGGSGGGGSGGGGSGGGGSQVQLVQSGAEVKKPGASVKVSCKASGYTFAGFEMHWVRQAPGQGLEWMGAIDPKTGGTDYNQKFKDRVTMTRDTSISTAYMELSRLRSDDTAVYYCARDLGYFDVWGQGTLVTVSS chain 2: QVQLVQSGAEVKKPGASVKVSCKASGYTFTSYVMHWVRQKPGQGLEWIGYINPYNEGTESTDKFKGRATMTSDKSTSTVYMELSSLRSEDTAVYYCASIYYGYEGTYFGVWGQGTLVTVSSASTKGPSVFPLAPSSKSTSGGTAALGCLVKDYFPEPVTVSWNSGALTSGVHTFPAVLQSSGLYSLSSVVTVPSSSLGTQTYICNVNHKPSNTKVDKKVEPKSCGGGGSGGGGSGGGGSGGGGSQAVVTQEPSLTVSPGGTVTLTCRSSTGAVTTSNYANWVQQKPGQAPRGLIGGTNKRAPWTPARFSGSLLGGKAALTITGAQAEDEADYYCALWYSNLWVFGGGTKLTVLGGGGSDKTHTCPPCPAPEAAGPSVFLFPPKPKDTLMISRTPEVTCVVVDVSHEDPEVKFNWYVDGVEVHNAKTKPREEQYNSTYRVVSVLTVLHQDWLNGKEYKCKVSNKALPAPIEKTISKAKGQPREPQVYTLPPSREEMTKNQVSLSCAVKGFYPSDIAVEWESNGQPENNYKTTPPVLDSDGSFFLVSKLTVDKSRWQQGNVFSCSVMHEALHNHYTQKSLSLSPGGGGGSGGGGSGGGGSGGGGSDIQMTQSPSSLSASVGDRVTITCRASQDIRSNLNWYQQKPGGAVKLLIYYTSRLHSGVPSRFSGSGSGTDYTLTISSLQPEDFATYFCQQSEKLPRTFGGGTKVEIR light: EIVLTQSPATLSLSPGERATLSCRASSSVSYMHWYQQKPGQAPRPWIYATSNLASGIPARFSGSRSGTDYTLTISSLEPEDFAVYYCQQWSSNTLTFGGGTKVEIKRTVAAPSVFIFPPSDEQLKSGTASVVCLLNNFYPREAKVQWKVDNALQSGNSQESVTEQDSKDSTYSLSSTLTLSKADYEKHKVYACEVTHQGLSSPVTKSFNRGEC	binds	binds	
Ly2326 (bispecific antibody, human IgG1, kappa, CD19/CD137: two CD19 Fabs, terminal CD137 Fv) chain 1: QVQLQQSGAELVRPGSSVKISCKASGYAFSSYWMNWVKQRPGQGLEWIGQIWPGDGDTNYNGKFKGKATLTADESSSTAYMQLSSLASEDSAVYFCARRETTTVGRYYYAMDYWGQGTTVTVSSASTKGPSVFPLAPSSKSTSGGTAALGCLVKDYFPEPVTVSWNSGALTSGVHTFPAVLQSSGLYSLSSVVTVPSSSLGTQTYICNVNHKPSNTKVDKKVEPKSCDKTHTCPPCPAPEAAGPSVFLFPPKPKDTLMISRTPEVTCVVVDVSHEDPEVKFNWYVDGVEVHNAKTKPREEQYNSTYRVVSVLTVLHQDWLNGKEYKCKVSNKALPAPIEKTISKAKGQPREPQVYTLPPSREEMTKNQVSLWCLVKGFYPSDIAVEWESNGQPENNYKTTPPVLDSDGSFFLYSKLTVDKSRWQQGNVFSCSVMHEALHNHYTQKSLSLSPGGGGGSGGGGSGGGGSGGGGSQVQLVQSGAEVKKPGASVKVSCKASGYTFAGFEMHWVRQAPGQGLEWMGAIDPKTGGTDYNQKFKDRVTMTRDTSISTAYMELSRLRSDDTAVYYCARDLGYFDVWGQGTLVTVSS chain 2: QVQLQQSGAELVRPGSSVKISCKASGYAFSSYWMNWVKQRPGQGLEWIGQIWPGDGDTNYNGKFKGKATLTADESSSTAYMQLSSLASEDSAVYFCARRETTTVGRYYYAMDYWGQGTTVTVSSASTKGPSVFPLAPSSKSTSGGTAALGCLVKDYFPEPVTVSWNSGALTSGVHTFPAVLQSSGLYSLSSVVTVPSSSLGTQTYICNVNHKPSNTKVDKKVEPKSCDKTHTCPPCPAPEAAGPSVFLFPPKPKDTLMISRTPEVTCVVVDVSHEDPEVKFNWYVDGVEVHNAKTKPREEQYNSTYRVVSVLTVLHQDWLNGKEYKCKVSNKALPAPIEKTISKAKGQPREPQVYTLPPSREEMTKNQVSLSCAVKGFYPSDIAVEWESNGQPENNYKTTPPVLDSDGSFFLVSKLTVDKSRWQQGNVFSCSVMHEALHNRFTQKSLSLSPGGGGGSGGGGSGGGGSGGGGSDIQMTQSPSSLSASVGDRVTITCRASQDIRSNLNWYQQKPGGAVKLLIYYTSRLHSGVPSRFSGSGSGTDYTLTISSLQPEDFATYFCQQSEKLPRTFGGGTKVEIR light: not shown	binds		
Ly2409 (bispecific antibody, PD-1/CD40: two PD-1 Fabs, central CD40 Fv (TM559)) chain 1: QVTLKESGPALVKPTQTLTLTCTFSGFSLSTSGTCVSWIRQPPGKALEWLATICWEDSKGYNPSLKSRLTISKDTSKNQAVLTMTNMDPVDTATYYCARREDSGYFWFPYWGQGTLVTVSSASTKGPSVFPLAPSSKSTSGGTAALGCLVKDYFPEPVTVSWNSGALTSGVHTFPAVLQSSGLYSLSSVVTVPSSSLGTQTYICNVNHKPSNTKVDKKVEPKSCGGGGSGGGGSGGGGSGGGGSEVQLVESGGGLVQPGGSLRLSCAASGFTFTNYGLHWVRQAPGKGLEWVSSISPSGGVTYYRDSVKGRFTISRDNSKNTLYLQMNSLRAEDTAVYYCAKPFLGWGGANWIAHWGQGTLVTVSSGGGGSDKTHTCPPCPAPEAAGPSVFLFPPKPKDTLMISRTPEVTCVVVDVSHEDPEVKFNWYVDGVEVHNAKTKPREEQYNSTYRVVSVLTVLHQDWLNGKEYKCKVSNKALPAPIEKTISKAKGQPREPQVYTLPPSREEMTKNQVSLWCLVKGFYPSDIAVEWESNGQPENNYKTTPPVLDSDGSFFLYSKLTVDKSRWQQGNVFSCSVMHEALHNHYTQKSLSLSPG chain 2: QVTLKESGPALVKPTQTLTLTCTFSGFSLSTSGTCVSWIRQPPGKALEWLATICWEDSKGYNPSLKSRLTISKDTSKNQAVLTMTNMDPVDTATYYCARREDSGYFWFPYWGQGTLVTVSSASTKGPSVFPLAPSSKSTSGGTAALGCLVKDYFPEPVTVSWNSGALTSGVHTFPAVLQSSGLYSLSSVVTVPSSSLGTQTYICNVNHKPSNTKVDKKVEPKSCGGGGSGGGGSGGGGSGGGGSDIQMTQSPSSLSASVGDRVTITCLASEDISNDLAWYQQKPGKAPKLLIYFVDRLLDGVPSRFSGSGSGTDFTLTISSLQPEDFATYYCQQSYKYPPTFGQGTKLEIKGGGGSDKTHTCPPCPAPEAAGPSVFLFPPKPKDTLMISRTPEVTCVVVDVSHEDPEVKFNWYVDGVEVHNAKTKPREEQYNSTYRVVSVLTVLHQDWLNGKEYKCKVSNKALPAPIEKTISKAKGQPREPQVYTLPPSREEMTKNQVSLSCAVKGFYPSDIAVEWESNGQPENNYKTTPPVLDSDGSFFLVSKLTVDKSRWQQGNVFSCSVMHEALHNRFTQKSLSLSPG light: NIQMTQSPSSLSASVGDRVTITCKAGQNVNNYLAWYQQKPGKAPKVLIFNANSLQTGVPSRFSGSGSGTDFTLTISSLQPEDFATYYCQQYNSWPTFGGGTKVEIKRTVAAPSVFIFPPSDEQLKSGTASVVCLLNNFYPREAKVQWKVDNALQSGNSQESVTEQDSKDSTYSLSSTLTLSKADYEKHKVYACEVTHQGLSSPVTKSFNRGEC			binds
Ly2415 (bispecific antibody, human IgG1, kappa, PD-1/CD40: two PD-1 Fabs, terminal CD40 Fv (TM559)) chain 1: QVTLKESGPALVKPTQTLTLTCTFSGFSLSTSGTCVSWIRQPPGKALEWLATICWEDSKGYNPSLKSRLTISKDTSKNQAVLTMTNMDPVDTATYYCARREDSGYFWFPYWGQGTLVTVSSASTKGPSVFPLAPSSKSTSGGTAALGCLVKDYFPEPVTVSWNSGALTSGVHTFPAVLQSSGLYSLSSVVTVPSSSLGTQTYICNVNHKPSNTKVDKKVEPKSCDKTHTCPPCPAPEAAGPSVFLFPPKPKDTLMISRTPEVTCVVVDVSHEDPEVKFNWYVDGVEVHNAKTKPREEQYNSTYRVVSVLTVLHQDWLNGKEYKCKVSNKALPAPIEKTISKAKGQPREPQVYTLPPSREEMTKNQVSLWCLVKGFYPSDIAVEWESNGQPENNYKTTPPVLDSDGSFFLYSKLTVDKSRWQQGNVFSCSVMHEALHNHYTQKSLSLSPGGGGGSGGGGSGGGGSGGGGSEVQLVESGGGLVQPGGSLRLSCAASGFTFTNYGLHWVRQAPGKGLEWVSSISPSGGVTYYRDSVKGRFTISRDNSKNTLYLQMNSLRAEDTAVYYCAKPFLGWGGANWIAHWGQGTLVTVSS chain 2: QVTLKESGPALVKPTQTLTLTCTFSGFSLSTSGTCVSWIRQPPGKALEWLATICWEDSKGYNPSLKSRLTISKDTSKNQAVLTMTNMDPVDTATYYCARREDSGYFWFPYWGQGTLVTVSSASTKGPSVFPLAPSSKSTSGGTAALGCLVKDYFPEPVTVSWNSGALTSGVHTFPAVLQSSGLYSLSSVVTVPSSSLGTQTYICNVNHKPSNTKVDKKVEPKSCDKTHTCPPCPAPEAAGPSVFLFPPKPKDTLMISRTPEVTCVVVDVSHEDPEVKFNWYVDGVEVHNAKTKPREEQYNSTYRVVSVLTVLHQDWLNGKEYKCKVSNKALPAPIEKTISKAKGQPREPQVYTLPPSREEMTKNQVSLSCAVKGFYPSDIAVEWESNGQPENNYKTTPPVLDSDGSFFLVSKLTVDKSRWQQGNVFSCSVMHEALHNRFTQKSLSLSPGGGGGSGGGGSGGGGSGGGGSDIQMTQSPSSLSASVGDRVTITCLASEDISNDLAWYQQKPGKAPKLLIYFVDRLLDGVPSRFSGSGSGTDFTLTISSLQPEDFATYYCQQSYKYPPTFGQGTKLEIK light: NIQMTQSPSSLSASVGDRVTITCKAGQNVNNYLAWYQQKPGKAPKVLIFNANSLQTGVPSRFSGSGSGTDFTLTISSLQPEDFATYYCQQYNSWPTFGGGTKVEIKRTVAAPSVFIFPPSDEQLKSGTASVVCLLNNFYPREAKVQWKVDNALQSGNSQESVTEQDSKDSTYSLSSTLTLSKADYEKHKVYACEVTHQGLSSPVTKSFNRGEC			binds
